According to the supplement of paper PMC10065799, “High-throughput profiling of sequence recognition by tyrosine kinases and SH2 domains using bacterial peptide display” (eLife, 2023):
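Also: 11-residue human phosphosite peptides and single-mutation variants displayed on the E. coli surface, counted by deep sequencing, each peptide's frequency after selection divided by its frequency in the unselected input library; frequency after pTyr selection over input frequency; kinase dosed for 20-30% of maximal phosphorylation in three min.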

These sequences were tested against Fyn (UniProt P06241) (assay: phosphorylation enrichment, bacterial display (enrichment ratio); higher = better substrate or ligand; peptides without Tyr show the background).
Chain of Fyn (P06241 whole entry, looked up): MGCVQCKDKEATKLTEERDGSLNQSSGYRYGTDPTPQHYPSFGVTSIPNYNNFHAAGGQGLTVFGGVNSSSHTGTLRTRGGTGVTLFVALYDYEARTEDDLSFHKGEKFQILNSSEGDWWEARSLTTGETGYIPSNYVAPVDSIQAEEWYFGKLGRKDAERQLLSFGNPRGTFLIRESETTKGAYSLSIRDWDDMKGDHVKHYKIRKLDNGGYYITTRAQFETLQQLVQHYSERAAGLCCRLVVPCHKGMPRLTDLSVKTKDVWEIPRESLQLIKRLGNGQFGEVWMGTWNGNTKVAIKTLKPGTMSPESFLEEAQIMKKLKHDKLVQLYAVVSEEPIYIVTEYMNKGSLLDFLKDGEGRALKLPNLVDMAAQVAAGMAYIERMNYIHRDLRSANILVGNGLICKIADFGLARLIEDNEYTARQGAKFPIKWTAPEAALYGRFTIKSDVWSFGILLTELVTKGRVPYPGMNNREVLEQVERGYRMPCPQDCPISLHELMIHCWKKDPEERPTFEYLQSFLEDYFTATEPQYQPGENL
With CTTIHYNFMCN [TP53_Y234_Y236F] the phosphorylation enrichment was 0.436.
GLAKEYIDPET [CSNK1G2_Y195] showed a phosphorylation enrichment of 0.494.
Work on MSYDRYMAICH [OR2A5_Y123] yielded a phosphorylation enrichment of 0.511.
For LFSNAYLNDLA [ALDH1A1_Y119_YF], the phosphorylation enrichment was 1.12.
Work on CTTIHQNFMCN [TP53_Y234_Y234Q_YF] yielded a phosphorylation enrichment of 0.435.
For ATPKGYERDAS [OTC_Y223_P225R], the phosphorylation enrichment was 0.442.
In the case of SIKNKYVTALF [KCNH2_Y611_D609N_YF], the phosphorylation enrichment is reported as 0.402.
NKEAICSGYIR [SMCHD1_Y283_Y283C] was tested, and the phosphorylation enrichment was 0.369.
Work on HVKHNYECLVY [XRCC5_Y416_I412V] yielded a phosphorylation enrichment of 0.922.
With LPEENYQVLCF [ARHGAP1_Y365_R369C] the phosphorylation enrichment was 1.64.
Sequence MICSAYALGGL [CPS1_Y590_R587C] has a phosphorylation enrichment of 0.659.
SETSRYLSELF [KCNJ3_Y67_D70E] was tested, and the phosphorylation enrichment was 0.397.
Work on ILGRFYETSSI [PAX2_Y73_G76S_YF] yielded a phosphorylation enrichment of 0.399.
Work on FAKTQYPDIYA [CRX_Y63_V66I] yielded a phosphorylation enrichment of 0.519.
Work on FSGLAYTMERS [GLUD1_Y512_H507Y_YF] yielded a phosphorylation enrichment of 0.544.
DFDNLYYWDQD [ERBB2_Y1221_A1216D] showed a phosphorylation enrichment of 6.81.
Sequence YSKTQYNQVPS [CXADR_Y318] has a phosphorylation enrichment of 0.461.
ALMGPYHGQVL [HADHA_Y343_L342P] gave a phosphorylation enrichment of 0.336.
VQQVIYATGAL [MYH7_Y422] gave a phosphorylation enrichment of 6.98.
PSNTDYPGPHS [TP63_Y171] showed a phosphorylation enrichment of 0.438.
HIPFRYPKEFQ [IDS_Y234] gave a phosphorylation enrichment of 0.424.
In the case of RLAKTYETTLK [ALB_Y377_E382K], the phosphorylation enrichment is reported as 0.82.
HRDSSYYWEIE [RAF1_Y340_Q335H] was tested, and the phosphorylation enrichment was 1.97.
INITIYGKTFR [EFHC1_Y177] was tested, and the phosphorylation enrichment was 0.438.
For SKDQIYPMKLK [RANBP17_Y823], the phosphorylation enrichment was 0.417.
For RSPLRYTSILT [OR51B6_Y130], the phosphorylation enrichment was 0.64.
KELSNYKHLTL [SLIT2_Y776] gave a phosphorylation enrichment of 0.417.
TLQSMFGCDVG [HLA-B_Y123_Y123F] gave a phosphorylation enrichment of 0.648.
QNRELYSEGLG [CNKSR1_Y665] was tested, and the phosphorylation enrichment was 0.434.
Work on ALPGEYIPTVF [RAC1_Y32_F28L] yielded a phosphorylation enrichment of 0.612.
Sequence PSPMPCASCQM [FOXL2_Y215_Y215C] has a phosphorylation enrichment of 0.603.
With MSRLKYPVSQQ [BTK_Y375_I370M] the phosphorylation enrichment was 0.473.
With VTGWGYRKLRD [F11_Y521] the phosphorylation enrichment was 0.463.

What follows are sequences tested against MERTK (UniProt Q12866) in the same assay as above.
Chain of MERTK (Q12866 whole entry, looked up): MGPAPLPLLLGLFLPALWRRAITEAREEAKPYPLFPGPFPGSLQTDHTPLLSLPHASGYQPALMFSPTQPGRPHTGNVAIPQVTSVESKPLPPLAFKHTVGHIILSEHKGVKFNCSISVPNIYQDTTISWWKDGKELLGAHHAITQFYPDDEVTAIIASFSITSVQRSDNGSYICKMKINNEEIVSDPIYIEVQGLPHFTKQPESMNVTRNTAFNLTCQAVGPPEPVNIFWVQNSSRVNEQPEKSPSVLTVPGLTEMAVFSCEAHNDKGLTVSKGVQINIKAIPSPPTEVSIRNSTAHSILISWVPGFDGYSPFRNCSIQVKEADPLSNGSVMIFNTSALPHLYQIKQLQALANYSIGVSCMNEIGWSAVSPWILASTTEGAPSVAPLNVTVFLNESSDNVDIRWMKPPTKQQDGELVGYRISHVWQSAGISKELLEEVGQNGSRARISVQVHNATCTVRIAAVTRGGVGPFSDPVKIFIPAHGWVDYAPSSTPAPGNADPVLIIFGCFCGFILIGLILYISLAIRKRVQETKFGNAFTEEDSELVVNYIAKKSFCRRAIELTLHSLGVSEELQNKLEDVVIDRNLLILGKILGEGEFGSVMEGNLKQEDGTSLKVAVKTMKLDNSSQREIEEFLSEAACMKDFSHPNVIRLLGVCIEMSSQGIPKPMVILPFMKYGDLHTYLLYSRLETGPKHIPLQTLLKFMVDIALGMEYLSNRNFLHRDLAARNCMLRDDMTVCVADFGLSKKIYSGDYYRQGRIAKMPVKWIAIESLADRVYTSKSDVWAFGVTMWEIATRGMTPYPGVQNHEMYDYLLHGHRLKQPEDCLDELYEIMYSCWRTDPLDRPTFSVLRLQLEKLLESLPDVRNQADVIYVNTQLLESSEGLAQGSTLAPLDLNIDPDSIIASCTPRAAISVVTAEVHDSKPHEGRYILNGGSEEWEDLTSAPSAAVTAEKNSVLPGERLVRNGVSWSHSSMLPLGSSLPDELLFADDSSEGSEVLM
CTTIHYNFMCN [TP53_Y234_Y236F] gave a phosphorylation enrichment of 0.405.
Sequence GLAKEYIDPET [CSNK1G2_Y195] has a phosphorylation enrichment of 0.4.
For MSYDRYMAICH [OR2A5_Y123], the phosphorylation enrichment was 0.484.
LFSNAYLNDLA [ALDH1A1_Y119_YF] showed a phosphorylation enrichment of 0.807.
For CTTIHQNFMCN [TP53_Y234_Y234Q_YF], the phosphorylation enrichment was 0.377.
Work on ATPKGYERDAS [OTC_Y223_P225R] yielded a phosphorylation enrichment of 0.447.
Sequence SIKNKYVTALF [KCNH2_Y611_D609N_YF] has a phosphorylation enrichment of 0.41.
In the case of NKEAICSGYIR [SMCHD1_Y283_Y283C], the phosphorylation enrichment is reported as 0.42.
In the case of HVKHNYECLVY [XRCC5_Y416_I412V], the phosphorylation enrichment is reported as 0.519.
With LPEENYQVLCF [ARHGAP1_Y365_R369C] the phosphorylation enrichment was 3.58.
MICSAYALGGL [CPS1_Y590_R587C] gave a phosphorylation enrichment of 0.571.
Sequence SETSRYLSELF [KCNJ3_Y67_D70E] has a phosphorylation enrichment of 0.382.
For ILGRFYETSSI [PAX2_Y73_G76S_YF], the phosphorylation enrichment was 0.472.
Sequence FAKTQYPDIYA [CRX_Y63_V66I] has a phosphorylation enrichment of 0.396.
FSGLAYTMERS [GLUD1_Y512_H507Y_YF] was tested, and the phosphorylation enrichment was 0.364.
For DFDNLYYWDQD [ERBB2_Y1221_A1216D], the phosphorylation enrichment was 7.57.
Sequence YSKTQYNQVPS [CXADR_Y318] has a phosphorylation enrichment of 0.467.
For ALMGPYHGQVL [HADHA_Y343_L342P], the phosphorylation enrichment was 0.335.
Work on VQQVIYATGAL [MYH7_Y422] yielded a phosphorylation enrichment of 3.08.
PSNTDYPGPHS [TP63_Y171] showed a phosphorylation enrichment of 0.552.
With HIPFRYPKEFQ [IDS_Y234] the phosphorylation enrichment was 0.645.
Work on RLAKTYETTLK [ALB_Y377_E382K] yielded a phosphorylation enrichment of 0.695.
With HRDSSYYWEIE [RAF1_Y340_Q335H] the phosphorylation enrichment was 4.59.
For INITIYGKTFR [EFHC1_Y177], the phosphorylation enrichment was 0.439.
SKDQIYPMKLK [RANBP17_Y823] gave a phosphorylation enrichment of 0.355.
RSPLRYTSILT [OR51B6_Y130] gave a phosphorylation enrichment of 0.392.
KELSNYKHLTL [SLIT2_Y776] showed a phosphorylation enrichment of 0.443.
TLQSMFGCDVG [HLA-B_Y123_Y123F] was tested, and the phosphorylation enrichment was 0.511.
In the case of QNRELYSEGLG [CNKSR1_Y665], the phosphorylation enrichment is reported as 0.443.
ALPGEYIPTVF [RAC1_Y32_F28L] showed a phosphorylation enrichment of 0.426.
PSPMPCASCQM [FOXL2_Y215_Y215C] showed a phosphorylation enrichment of 0.588.
Sequence MSRLKYPVSQQ [BTK_Y375_I370M] has a phosphorylation enrichment of 0.478.
For VTGWGYRKLRD [F11_Y521], the phosphorylation enrichment was 0.51.

These sequences were tested against EPHB1 (UniProt P54762) in the same assay as above.
Chain of EPHB1 (P54762 whole entry, looked up): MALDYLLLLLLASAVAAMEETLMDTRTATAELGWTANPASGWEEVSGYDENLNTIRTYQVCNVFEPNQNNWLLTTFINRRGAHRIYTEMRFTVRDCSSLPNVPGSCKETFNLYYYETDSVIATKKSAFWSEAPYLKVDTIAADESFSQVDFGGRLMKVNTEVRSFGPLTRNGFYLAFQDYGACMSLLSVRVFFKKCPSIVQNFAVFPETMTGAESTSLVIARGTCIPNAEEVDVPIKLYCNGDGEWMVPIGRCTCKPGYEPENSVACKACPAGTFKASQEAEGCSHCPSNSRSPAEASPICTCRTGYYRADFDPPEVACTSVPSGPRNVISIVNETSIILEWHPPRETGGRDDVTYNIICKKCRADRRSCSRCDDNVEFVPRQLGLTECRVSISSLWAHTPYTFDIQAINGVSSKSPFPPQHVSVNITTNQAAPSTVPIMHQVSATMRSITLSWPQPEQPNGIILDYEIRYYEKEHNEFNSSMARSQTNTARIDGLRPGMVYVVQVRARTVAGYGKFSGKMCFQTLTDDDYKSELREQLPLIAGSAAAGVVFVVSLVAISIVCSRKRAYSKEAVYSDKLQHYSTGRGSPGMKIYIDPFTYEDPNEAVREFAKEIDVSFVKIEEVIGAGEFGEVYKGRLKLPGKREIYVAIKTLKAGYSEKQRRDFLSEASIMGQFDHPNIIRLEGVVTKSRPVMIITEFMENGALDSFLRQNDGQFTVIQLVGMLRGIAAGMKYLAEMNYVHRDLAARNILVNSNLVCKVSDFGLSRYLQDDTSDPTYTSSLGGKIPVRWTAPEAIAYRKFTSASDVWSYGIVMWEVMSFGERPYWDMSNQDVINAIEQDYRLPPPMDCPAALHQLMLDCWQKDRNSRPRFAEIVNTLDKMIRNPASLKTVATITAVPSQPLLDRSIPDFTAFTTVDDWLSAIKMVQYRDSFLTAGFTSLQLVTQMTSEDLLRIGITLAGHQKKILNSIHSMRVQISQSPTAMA
For CTTIHYNFMCN [TP53_Y234_Y236F], the phosphorylation enrichment was 0.428.
Work on GLAKEYIDPET [CSNK1G2_Y195] yielded a phosphorylation enrichment of 0.527.
With MSYDRYMAICH [OR2A5_Y123] the phosphorylation enrichment was 0.846.
Work on LFSNAYLNDLA [ALDH1A1_Y119_YF] yielded a phosphorylation enrichment of 0.794.
For CTTIHQNFMCN [TP53_Y234_Y234Q_YF], the phosphorylation enrichment was 0.421.
With ATPKGYERDAS [OTC_Y223_P225R] the phosphorylation enrichment was 0.358.
Work on SIKNKYVTALF [KCNH2_Y611_D609N_YF] yielded a phosphorylation enrichment of 0.394.
NKEAICSGYIR [SMCHD1_Y283_Y283C] showed a phosphorylation enrichment of 0.52.
HVKHNYECLVY [XRCC5_Y416_I412V] showed a phosphorylation enrichment of 2.87.
With LPEENYQVLCF [ARHGAP1_Y365_R369C] the phosphorylation enrichment was 9.13.
In the case of MICSAYALGGL [CPS1_Y590_R587C], the phosphorylation enrichment is reported as 0.623.
Work on SETSRYLSELF [KCNJ3_Y67_D70E] yielded a phosphorylation enrichment of 0.467.
For ILGRFYETSSI [PAX2_Y73_G76S_YF], the phosphorylation enrichment was 0.516.
In the case of FAKTQYPDIYA [CRX_Y63_V66I], the phosphorylation enrichment is reported as 0.355.
For FSGLAYTMERS [GLUD1_Y512_H507Y_YF], the phosphorylation enrichment was 0.492.
Work on DFDNLYYWDQD [ERBB2_Y1221_A1216D] yielded a phosphorylation enrichment of 4.08.
YSKTQYNQVPS [CXADR_Y318] showed a phosphorylation enrichment of 0.351.
Work on ALMGPYHGQVL [HADHA_Y343_L342P] yielded a phosphorylation enrichment of 0.366.
With VQQVIYATGAL [MYH7_Y422] the phosphorylation enrichment was 0.96.
With PSNTDYPGPHS [TP63_Y171] the phosphorylation enrichment was 0.589.
Work on HIPFRYPKEFQ [IDS_Y234] yielded a phosphorylation enrichment of 0.521.
Sequence RLAKTYETTLK [ALB_Y377_E382K] has a phosphorylation enrichment of 1.
Sequence HRDSSYYWEIE [RAF1_Y340_Q335H] has a phosphorylation enrichment of 3.07.
For INITIYGKTFR [EFHC1_Y177], the phosphorylation enrichment was 0.648.
Sequence SKDQIYPMKLK [RANBP17_Y823] has a phosphorylation enrichment of 0.29.
For RSPLRYTSILT [OR51B6_Y130], the phosphorylation enrichment was 0.426.
KELSNYKHLTL [SLIT2_Y776] gave a phosphorylation enrichment of 0.494.
Work on TLQSMFGCDVG [HLA-B_Y123_Y123F] yielded a phosphorylation enrichment of 0.657.
QNRELYSEGLG [CNKSR1_Y665] was tested, and the phosphorylation enrichment was 0.536.
ALPGEYIPTVF [RAC1_Y32_F28L] showed a phosphorylation enrichment of 0.585.
In the case of PSPMPCASCQM [FOXL2_Y215_Y215C], the phosphorylation enrichment is reported as 0.354.
Sequence MSRLKYPVSQQ [BTK_Y375_I370M] has a phosphorylation enrichment of 0.413.
In the case of VTGWGYRKLRD [F11_Y521], the phosphorylation enrichment is reported as 0.364.

What follows are sequences tested against FGFR1 (UniProt P11362) in the same assay as above.
Chain of FGFR1 (P11362 whole entry, looked up): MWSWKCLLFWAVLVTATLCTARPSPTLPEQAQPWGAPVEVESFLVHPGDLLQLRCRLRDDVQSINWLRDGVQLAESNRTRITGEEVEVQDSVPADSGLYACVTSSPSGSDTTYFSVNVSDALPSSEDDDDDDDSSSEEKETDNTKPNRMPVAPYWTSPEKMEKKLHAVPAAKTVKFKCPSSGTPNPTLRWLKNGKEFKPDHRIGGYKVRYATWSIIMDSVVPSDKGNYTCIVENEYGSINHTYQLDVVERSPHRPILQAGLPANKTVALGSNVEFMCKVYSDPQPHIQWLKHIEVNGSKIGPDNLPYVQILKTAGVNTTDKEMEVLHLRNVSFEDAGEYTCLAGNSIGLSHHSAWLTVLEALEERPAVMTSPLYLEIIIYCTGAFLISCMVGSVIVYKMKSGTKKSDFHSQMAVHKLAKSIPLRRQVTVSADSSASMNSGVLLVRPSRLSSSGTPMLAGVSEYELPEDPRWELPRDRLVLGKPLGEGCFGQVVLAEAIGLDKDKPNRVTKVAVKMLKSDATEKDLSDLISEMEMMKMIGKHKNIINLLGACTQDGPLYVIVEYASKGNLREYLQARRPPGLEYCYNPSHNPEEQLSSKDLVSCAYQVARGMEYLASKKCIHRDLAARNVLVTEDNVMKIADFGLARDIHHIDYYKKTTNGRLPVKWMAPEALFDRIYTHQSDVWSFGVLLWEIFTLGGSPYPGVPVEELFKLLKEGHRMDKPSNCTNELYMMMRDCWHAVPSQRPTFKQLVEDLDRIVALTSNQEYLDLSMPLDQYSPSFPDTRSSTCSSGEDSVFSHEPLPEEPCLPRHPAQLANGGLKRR
With CTTIHYNFMCN [TP53_Y234_Y236F] the phosphorylation enrichment was 0.509.
For GLAKEYIDPET [CSNK1G2_Y195], the phosphorylation enrichment was 0.544.
With MSYDRYMAICH [OR2A5_Y123] the phosphorylation enrichment was 0.509.
Sequence LFSNAYLNDLA [ALDH1A1_Y119_YF] has a phosphorylation enrichment of 0.986.
In the case of CTTIHQNFMCN [TP53_Y234_Y234Q_YF], the phosphorylation enrichment is reported as 0.459.
With ATPKGYERDAS [OTC_Y223_P225R] the phosphorylation enrichment was 0.462.
SIKNKYVTALF [KCNH2_Y611_D609N_YF] was tested, and the phosphorylation enrichment was 0.417.
Sequence NKEAICSGYIR [SMCHD1_Y283_Y283C] has a phosphorylation enrichment of 0.509.
For HVKHNYECLVY [XRCC5_Y416_I412V], the phosphorylation enrichment was 0.75.
Sequence LPEENYQVLCF [ARHGAP1_Y365_R369C] has a phosphorylation enrichment of 8.04.
MICSAYALGGL [CPS1_Y590_R587C] showed a phosphorylation enrichment of 0.635.
With SETSRYLSELF [KCNJ3_Y67_D70E] the phosphorylation enrichment was 0.509.
Work on ILGRFYETSSI [PAX2_Y73_G76S_YF] yielded a phosphorylation enrichment of 0.417.
For FAKTQYPDIYA [CRX_Y63_V66I], the phosphorylation enrichment was 0.449.
In the case of FSGLAYTMERS [GLUD1_Y512_H507Y_YF], the phosphorylation enrichment is reported as 0.455.
DFDNLYYWDQD [ERBB2_Y1221_A1216D] showed a phosphorylation enrichment of 9.53.
YSKTQYNQVPS [CXADR_Y318] was tested, and the phosphorylation enrichment was 0.393.
ALMGPYHGQVL [HADHA_Y343_L342P] gave a phosphorylation enrichment of 0.411.
For VQQVIYATGAL [MYH7_Y422], the phosphorylation enrichment was 0.488.
PSNTDYPGPHS [TP63_Y171] showed a phosphorylation enrichment of 0.511.
HIPFRYPKEFQ [IDS_Y234] was tested, and the phosphorylation enrichment was 0.442.
RLAKTYETTLK [ALB_Y377_E382K] gave a phosphorylation enrichment of 0.553.
HRDSSYYWEIE [RAF1_Y340_Q335H] was tested, and the phosphorylation enrichment was 6.05.
In the case of INITIYGKTFR [EFHC1_Y177], the phosphorylation enrichment is reported as 0.583.
SKDQIYPMKLK [RANBP17_Y823] was tested, and the phosphorylation enrichment was 0.386.
For RSPLRYTSILT [OR51B6_Y130], the phosphorylation enrichment was 0.536.
With KELSNYKHLTL [SLIT2_Y776] the phosphorylation enrichment was 0.501.
In the case of TLQSMFGCDVG [HLA-B_Y123_Y123F], the phosphorylation enrichment is reported as 0.515.
QNRELYSEGLG [CNKSR1_Y665] gave a phosphorylation enrichment of 0.578.
In the case of ALPGEYIPTVF [RAC1_Y32_F28L], the phosphorylation enrichment is reported as 0.573.
Sequence PSPMPCASCQM [FOXL2_Y215_Y215C] has a phosphorylation enrichment of 0.445.
In the case of MSRLKYPVSQQ [BTK_Y375_I370M], the phosphorylation enrichment is reported as 0.434.
VTGWGYRKLRD [F11_Y521] showed a phosphorylation enrichment of 0.392.
